T1: hiR1-FL-WT-T7 (human iRhom1 full length wild type C-terminally tagged with 3 consecutive copies of the T7 … (human, UniProt Q96CC6 1-855))
T1 construct: also called human iRhom1 variant expressed by MEF-DKO-hiR1-FL-WT-T7 cells
T1 sequence: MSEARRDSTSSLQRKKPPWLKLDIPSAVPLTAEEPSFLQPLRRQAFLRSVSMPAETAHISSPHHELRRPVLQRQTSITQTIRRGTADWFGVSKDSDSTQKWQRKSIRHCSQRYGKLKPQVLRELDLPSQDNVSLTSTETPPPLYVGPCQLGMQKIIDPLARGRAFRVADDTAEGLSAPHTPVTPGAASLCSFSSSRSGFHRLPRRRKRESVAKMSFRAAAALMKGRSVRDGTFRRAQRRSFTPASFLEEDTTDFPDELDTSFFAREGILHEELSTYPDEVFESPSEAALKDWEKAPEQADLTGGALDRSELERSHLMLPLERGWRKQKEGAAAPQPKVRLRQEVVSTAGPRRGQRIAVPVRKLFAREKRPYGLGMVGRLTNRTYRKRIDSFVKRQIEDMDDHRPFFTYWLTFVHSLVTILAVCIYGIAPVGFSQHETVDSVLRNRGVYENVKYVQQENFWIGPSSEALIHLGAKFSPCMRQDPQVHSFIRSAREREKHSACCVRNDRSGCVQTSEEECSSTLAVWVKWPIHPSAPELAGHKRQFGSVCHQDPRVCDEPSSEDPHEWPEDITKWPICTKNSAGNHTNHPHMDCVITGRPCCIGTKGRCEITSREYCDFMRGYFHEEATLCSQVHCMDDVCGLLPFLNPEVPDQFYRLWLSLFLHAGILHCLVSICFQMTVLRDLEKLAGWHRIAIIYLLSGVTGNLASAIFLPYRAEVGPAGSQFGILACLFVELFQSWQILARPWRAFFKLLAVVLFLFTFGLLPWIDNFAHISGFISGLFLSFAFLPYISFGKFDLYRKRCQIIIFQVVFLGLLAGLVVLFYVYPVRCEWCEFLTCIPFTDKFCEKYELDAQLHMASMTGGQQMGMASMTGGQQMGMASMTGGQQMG


Assays:
mouse iR1 wild type = molecular target: T2, mouse iR1 wild type (mouse); assay: FACS on cells expressing mouse iR1 wild type, vs human iR2 wild type = 100%
T2 construct: wild type; also called mouse iRhom1 wild type; miR1-FL WT
T2 sequence (Q6PIX5 whole entry): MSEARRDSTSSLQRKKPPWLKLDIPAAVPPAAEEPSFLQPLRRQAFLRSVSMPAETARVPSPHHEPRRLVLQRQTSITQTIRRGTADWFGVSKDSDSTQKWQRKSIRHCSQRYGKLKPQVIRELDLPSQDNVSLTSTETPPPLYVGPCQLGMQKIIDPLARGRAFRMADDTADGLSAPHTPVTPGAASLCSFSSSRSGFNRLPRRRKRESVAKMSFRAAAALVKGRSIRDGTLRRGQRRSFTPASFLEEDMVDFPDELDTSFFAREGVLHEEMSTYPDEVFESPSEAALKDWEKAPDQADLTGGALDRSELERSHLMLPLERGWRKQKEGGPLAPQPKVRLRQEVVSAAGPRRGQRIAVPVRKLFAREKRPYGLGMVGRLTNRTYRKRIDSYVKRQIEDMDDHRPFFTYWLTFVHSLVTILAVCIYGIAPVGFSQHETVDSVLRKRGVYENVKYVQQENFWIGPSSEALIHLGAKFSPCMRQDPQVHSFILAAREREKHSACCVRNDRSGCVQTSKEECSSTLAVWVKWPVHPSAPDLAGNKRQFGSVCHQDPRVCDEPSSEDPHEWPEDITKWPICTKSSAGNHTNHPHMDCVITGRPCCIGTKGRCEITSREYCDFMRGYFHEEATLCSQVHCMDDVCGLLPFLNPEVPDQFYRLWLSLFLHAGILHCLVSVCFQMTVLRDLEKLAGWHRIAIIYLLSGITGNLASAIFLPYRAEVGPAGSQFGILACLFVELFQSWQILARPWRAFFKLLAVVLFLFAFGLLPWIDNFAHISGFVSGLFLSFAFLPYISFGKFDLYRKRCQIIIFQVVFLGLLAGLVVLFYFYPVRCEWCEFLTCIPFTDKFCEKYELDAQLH

[1] = molecular target: T1, hiR1-FL-WT-T7 (human iRhom1 full length …); assay: FACS on cells of the row human iR1 wild type, vs human iR2 wild type = 100%

Binder	grade of loss of binding vs wild type (mouse iR1 wild type)	grade of loss of binding vs wild type [1]
antibody 34 (antibody, V domains shown, Mouse IgG, kappa light chain; also called clone #34; m34) VH: QVTLKESGPGILQPSQTLSLTCSFSGFSLSTFSLGVGWIRQSSGKGLEWLAHIWWDDEKYYNPALKSRLTISKDTSKNQVFLKIANVDAADTATYYCARAYYSKSYYALDYWGQGTSVTVSS VL: DIQMTQSPSSLSASLGERVSLTCRASQEISGYLSWLQQKPDGTIKRLIYAASTLDSGVPKRFSGSRSGSDYSLAISSLESEDFADYYCLQYANFPFTFGSGTKLEIK	3 grade (3 => 95% loss of binding vs wild type)	3 grade (3 => 95% loss of binding vs wild type)
antibody 43 (antibody, V domains shown, Mouse IgG, kappa light chain; also called clone #43) VH: QVALKESGPGILQPSQTLSLTCSFSGFSLSTFGMGVGWIRQSSGKGLEWLANIWWDDDKYYNPALKSRLTISKDASKNQAFLKIANVDTADTATYYCARIGNYGSNYWYFDVWGTGTTVTVSS VL: QIVLTQSPAIMSASPGERVTMTCSANSRISYMYWYQQKPGSSPRLLIYDTSNLASGVPVRFSGSGSGTSYSLTISRMEAEDAATYNCQQWSSYPLTFGAGTKLELK	3 grade (3 => 95% loss of binding vs wild type)	3 grade (3 => 95% loss of binding vs wild type)
antibody 5 (antibody, V domains shown, Mouse IgG, kappa light chain; also called clone #5; purified antibody 5) VH: QVTLKESGPGILQPSQTLSLTCSFSGFSLSTFGMGVGWIRQPSGKGLEWLAHIWWDDEKYYNSALKSRLTISKATSKNQAFLKIANVDTADTATYYCARISNYGSNYWYFNVWGTGTTVTVSS VL: QVVLTQSPALMSASPGEKVTMTCSAGSSVSCMYWYQQKPGSSPRVLIYDTSNLASGVPARFTGSGSGTSYSLTISRMEAEDAASYYCQQWNSYPLTFGAGTKLELK	3 grade (3 => 95% loss of binding vs wild type)	3 grade (3 => 95% loss of binding vs wild type)
antibody 44 (antibody, V domains shown, Mouse IgG, kappa light chain; also called clone #44; m44) VH: QVTLKESGPGILQPSQTLSLTCSFSGFSLSTFGMGVGWIRQPSEKGLEWLAHIWWDDDKYYNPALKSRLTISKDTSKNQIFLKITNVDTAETATYYCSRIGNYGSNYWYFDVWGTGTTVTVSS VL: QIVLTQSPAVMSASPGEKVTMTCTASSSVYYMYWYQQTPGSSPRLLIYDTSNLASGVPVRFSGSGSGTSYSLTISRMEAEDAATYYCQQWNTYPLTFGAGTKLELK	3 grade (3 => 95% loss of binding vs wild type)	3 grade (3 => 95% loss of binding vs wild type)
antibody 42 (antibody, V domains shown, Mouse IgG, kappa light chain; also called clone #42; m42) VH: QVTLKESGPGILQPSQTLSLTCSLSGFSLSTFGRGVGWIRQPSGKGLEWLAHIWWDDEKYYNPALKSRLTISKDTSKNQVFLRIANVDTADTATYYCARIQNYGSNYWYFDVWGTGTTVTVSS VL: LIVLTQSPAIMSASPGEKVTMTCGATSRISYMFWYQQKPGSSPRVLIYDTSNLASGVPVRFSGSGSGTSYSLTISRVEAEDVATYYCQQWNSYPLTFGAGTKLELK	3 grade (3 => 95% loss of binding vs wild type)	3 grade (3 => 95% loss of binding vs wild type)
antibody 22 (antibody, V domains shown, Mouse IgG, kappa light chain; also called clone #22; m22) VH: QVTLKESGPGILQPSQTLSLTCSFSGFSLSTFGMGVGWIRQPSGKGLEWLAHIWWDDEKYYNSALKSRLTISKATSKNQVFLKIANVDTADTATYYCARISNYGSNYWYFNVWGTGTTVTVSS VL: QVVLTQSPALMSASPGEKVTMTCSAGSSVSYMYWYQQKPGSSPRVLIYDTSNLASGVPARFTGSGSGTSYSLTISRMEAEDAATYYCQQWNSYPLTFGAGTKLELK	3 grade (3 => 95% loss of binding vs wild type)	3 grade (3 => 95% loss of binding vs wild type)
antibody 16 (antibody, V domains shown, Mouse IgG, kappa light chain; also called clone #16; m16) VH: QVTLKESGPGILQPSQTLSLTCSFSGFSLSTFALGVGWIRQPSGRGLEWLAHIWWDDDKYYNPALKSRLTISKDTSKNHVFLKIANVDTADTATYYCARITTYYYGMDYWGQGTSVTVSS VL: DIVLSQSPATLSVTPGDSVSLFCRASQSIGNHLHWYQQESHASPRLLIKYASQSISGIPSRFSGSGSGTDFTLSINSVETEDFGMYFCQQSYNWPLTFGAGTKLELK	3 grade (3 => 95% loss of binding vs wild type)	3 grade (3 => 95% loss of binding vs wild type)
antibody 3 (antibody, V domains shown, Mouse IgG, kappa light chain; also called clone #3; purified antibody 3) VH: QVTLKESGPGILQPSQTLSLTCSFSGFSLTTFAMGIGWVRQPSGKGLEWLAHIWWDGEKYNNPVLKSRLTISKDTSKNQVFLRIANVDTPDTATYYCARISSIYYIIDNWGQGTSVTVSS VL: DIVLTQSPATLSVTPGHSVSLSCRASQSISNNLHWYQKKSHESPRLLIKYVSQSISGIPSRFSGSGSGTDFTLSINSVETEDFGMYFCQQSYNWPLTFGAGTKLELK	3 grade (3 => 95% loss of binding vs wild type)	3 grade (3 => 95% loss of binding vs wild type)
antibody 50 (antibody, V domains shown, Mouse IgG, kappa light chain; also called clone #50; purified antibody 50) VH: QVQLQQSGAELVRPGASVKVSCKASGYAFSNYLIEWVKQRPGQGLEWIGVINPGSGFTKYNEKFKGKATLTADKSSSTAYMQLSSLTSEDSAVYFCARGLYRAMDYWGQGTSVTVSS VL: DIQMTQSPASQSASLGESVTITCLASQTIGTWLAWYQQKPGKSPQLLIYAAASLADGVPSRFSGGGSGTKFSFKISSLQAEDFVNYYCQQIYSTPYTFGGGTKLEIK	3 grade (3 => 95% loss of binding vs wild type)	3 grade (3 => 95% loss of binding vs wild type)

From patent US20240174744A1 (SCIRHOM, published 2024)
